*1 amine or outer side, *2 acyl side, *3 side chain or, on linkers, in order; H or OH if unused. Bridges are numbered along the chain shown (N, C = ends). Primed or numbered codes have the meaning given here. [ ]: non-standard residue; d: D form. The star is where a group is joined. Ttds″ = 1,13-diamino-4,7,10-trioxatridecan-succinamic acid (linker), O=C(CCC(=O)[*:2])NCCCOCCOCCOCCCN[*:1]; Ttds = 1,13-diamino-4,7,10-trioxatridecan-succinamic acid, NCCCOCCOCCOCCCNC(=O)CCC(=O)*; DOTA(In) = O=C1CN2CCN3CCN(CC(=O)*)CCN(CC2)CC(=O)[O][In]([O]1)[O]C(=O)C3; APAc″ = 4-amino-1-carboxymethylpiperidine, NC1CCN(CC(=O)*)CC1; dE(AGLU) = D-glutamic acid bearing 1-amino-1-deoxy-D-glucitol; Pro(trans-4-NH2) = O=C([C@@H]1C[C@@H](N[*:3])CN1[*:1])[*:2]; DOTA = O=C(O)CN1CCN(CC(=O)O)CCN(CC(=O)*)CCN(CC(=O)O)CC1; 3MeBn = 3-methyl-benzylidene (derived from 1,3-xylene); 2Lut = 2,6-lutidylidene bridge between two thiols; Trp(5-Cl) = N[C@@H](Cc1c[nH]c2ccc(Cl)cc12)C(=O)O; Pyridine(2,6-diCH2) = c1cc(C[*:1])nc(C[*:2])c1; 2Lut″ = 2,6-lutidylidene linking two thiols; APAc = 4-amino-1-carboxymethylpiperidine; mXylylene = c1cc(C[*:1])cc(C[*:2])c1; LuDOTA = DOTA Lutetium(III) complex; Glutaryl = O=C(CCCC(=O)[*:2])[*:1]; AGLU = 1-amino-1-deoxy-D-glucitol; Cya = N[C@@H](CS(=O)(=O)O)C(=O)O; Hyp = O=C(O)[C@@H]1C[C@@H](O)CN1; Cysteamide = C(CS[*:3])N[*:1]; Suc = O=C(CCC(=O)[*:2])[*:1]; N(CH2CH2)2NH = C1CN(*)CCN1; Api = NC1(C(=O)O)CCNCC1; Thp = NC1(C(=O)O)CCOCC1; Dap = NC[C@H](N)C(=O)O; NH(CH2)5NH2 = NCCCCCN*; DOTA′ = DOTA chelator; Aib = CC(C)(N)C(=O)O
B1: DOTA-Ttds-Asp-Trp-5Clw-Tap-Glu-leu-[Dap(2Lut)-Apc-Leu-Ile-AET] (peptide)
peptide: {DOTA-Ttds}-DW[Trp(5-Cl)][Pro(trans-4-NH2)]E[dL][Dap][Api]LI[Cysteamide]
modifications: linker 7-11 via Pyridine(2,6-diCH2)
B2: HO-Succinyl-Trp-5Clw-Hyp-Glu-leu-[Cys(2Lut)-Apc-Leu-Ile-Cys]-APAc-Lys(DOTA)-NH2 (peptide)
peptide: Suc-W[Trp(5-Cl)][Hyp]E[dL]C[Api]LIC-{APAc-Lys(DOTA)-NH2}
modifications: linker 6-10 via 2Lut
B3: HO-Succinyl-Trp-5Clw-Hyp-Glu-leu-[Cys(2Lut)-Thp-Leu-Ile-Cys]-Ape-DOTA (peptide)
peptide: Suc-W[Trp(5-Cl)][Hyp]E[dL]C[Thp]LIC-{NH(CH2)5NH2-DOTA′}
modifications: linker 6-10 via 2Lut
B4: HO-Succinyl-Trp-5Clw-Hyp-Glu-leu-[Cys(2Lut)-Thp-Leu-Ile-Cys]-PP-DOTA (peptide)
peptide: Suc-W[Trp(5-Cl)][Hyp]E[dL]C[Thp]LIC-{N(CH2CH2)2NH-DOTA′}
modifications: linker 6-10 via 2Lut
B5: DOTA-Ttds-Asp-Trp-5Clw-Pro-Glu-leu-[Cys(2Lut)-Apc-Leu-Ile-AET] (peptide)
peptide: {DOTA-Ttds″}-DW[Trp(5-Cl)]PE[dL]C[Api]LI-Cysteamide
modifications: not fully specified (bridges); printed as DOTA-Ttds-Asp-Trp-5Clw-Pro-Glu-leu-[Cys(2Lut)-Apc-Leu-Ile-AET]
B6: Ac-Asp-Trp-5Clw-Tap(DOTA)-Glu-leu-[Cys(2Lut)-Thp-Leu-Ile-Cys]-NH2 (peptide)
peptide: Ac-DW[Trp(5-Cl)][Pro(trans-4-NH2)](DOTA)E[dL]C[Thp]LIC-NH2
modifications: linker 7-11 via 2Lut″
B7: AGLU-Glutar-Asp-Trp-5Clw-Hyp-Glu-leu-[Cys(2Lut)-Apc(AGLU-Glutar)-Leu-Ile-Cys]-APAc-Lys(DOTA)-NH2 (peptide)
peptide: DWXXEXCXLIC
modifications: AGLU-Glutar; 5Clw; Hyp; D-leu; Apc(AGLU-Glutar); 2Lut bridge Cys-Cys; APAc; Lys(DOTA); C-term NH2
B8: AGLU-Glutar-APAc-Asp-Trp-5Clw-Hyp-Glu-leu-[Cys(2Lut)-Apc(DOTA)-Leu-Ile-Cys]-APAc-glu(AGLU)-NH2 (peptide)
peptide: {AGLU-Glutaryl-APAc}-DW[Trp(5-Cl)][Hyp]E[dL]C[Api](DOTA)LIC-{APAc-dE(AGLU)-NH2}
modifications: linker 7-11 via Pyridine(2,6-diCH2)
B9: AGLU-Glutar-Asp-Trp-5Clw-Hyp-Glu-leu-[Cys(2Lut)-Apc(InDOTA)-Leu-Ile-AET] (peptide)
peptide: {AGLU-Glutaryl}-DW[Trp(5-Cl)][Hyp]E[dL]C[Api](DOTA(In))LI[Cysteamide]
modifications: thioether (positions not given here) via Pyridine(2,6-diCH2); not fully specified (bridges); printed as AGLU-Glutar-Asp-Trp-5Clw-Hyp-Glu-leu-[Cys(2Lut)-Apc(InDOTA)-Leu-Ile-AET]; also: In complex of DOTA
B10: InDOTA-Ttds-Asp-Trp-5Clw-Hyp-Glu-leu-[Cys(3MeBn)-Aib-Leu-Ile-AET] (peptide)
peptide: {DOTA(In)-Ttds}-DW[Trp(5-Cl)][Hyp]E[dL]C[Aib]LI[Cysteamide]
modifications: linker 7-11 via 3MeBn; also: DOTA as indium complex (InDOTA)
B11: InDOTA-APAc-Asp-Trp-5Clw-Pro-Glu-leu-[Cys(3MeBn)-Aib-Leu-Ile-AET] (peptide)
peptide: {DOTA(In)-APAc″}-DW[Trp(5-Cl)]PE[dL]C[Aib]LI[Cysteamide]
modifications: linker 7-11 via 3MeBn; also: DOTA as indium complex (InDOTA)
B12: InDOTA-APAc-Asp-Trp-5Clw-Hyp-Glu-leu-[Cys(2Lut)-Thp-Leu-Ile-AET] (peptide)
peptide: {DOTA(In)-APAc″}-DW[Trp(5-Cl)][Hyp]E[dL]C[Thp]LI[Cysteamide]
modifications: linker 7-11 via 2Lut; also: DOTA as indium complex (InDOTA)
B13: LuDOTA-Ttds-Asp-Trp-5Clw-Pro-Glu-leu-[Cys(3MeBn)-Aib-Leu-Ile-AET] (peptide)
peptide: {LuDOTA-Ttds}-DW[Trp(5-Cl)]PE[dL]C[Aib]LI[Cysteamide]
modifications: linker 7-11 via mXylylene
B14: HO-Succinyl-Trp-5Clw-Hyp-Glu-leu-[Cys(2Lut)-Apc(InDOTA)-Leu-Ile-AET] (peptide)
peptide: Suc-W[Trp(5-Cl)][Hyp]E[dL]C[Api](DOTA(In))LI[Cysteamide]
modifications: linker 6-10 via 2Lut; also: In complex of DOTA
B15: Ac-Cya-Trp-5Clw-Hyp-Glu-leu-[Cys(2Lut)-Aib-Leu-Ile-AET] (peptide)
peptide: Ac-[Cya]W[Trp(5-Cl)][Hyp]E[dL]C[Aib]LI[Cysteamide]
modifications: linker (positions not given here) via Pyridine(2,6-diCH2); not fully specified (bridges); printed as Ac-Cya-Trp-5Clw-Hyp-Glu-leu-[Cys(2Lut)-Aib-Leu-Ile-AET]

target: biotinylated extracellular domain of the human GIP receptor (bioGIPR) (human) (UniProt P48546); assay: SPR single cycle kinetics, bioGIPR captured on chip; category A: pKD >9.0
Sequence (P48546 24-138 limits assumed): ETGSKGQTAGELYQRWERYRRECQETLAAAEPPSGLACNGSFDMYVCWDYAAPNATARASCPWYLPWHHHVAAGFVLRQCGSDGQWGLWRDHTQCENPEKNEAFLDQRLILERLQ

Binder	pKD
B1	> 9 pkd
B2	> 9 pkd
B3	> 9 pkd
B4	> 9 pkd
B5	> 9 pkd
B6	> 9 pkd
B7	> 9 pkd
B8	> 9 pkd
B9	> 9 pkd
B10	> 9 pkd
B11	> 9 pkd
B12	> 9 pkd
B13	> 9 pkd
B14	> 9 pkd
B15	> 9 pkd

target: biotinylated extracellular domain of the human GIP receptor (bioGIPR) (human) (UniProt P48546); assay: SPR single cycle kinetics, bioGIPR captured on chip; category A: t1/2 >15 min

Binder	t1/2
B1	> 15 min
B2	> 15 min
B3	> 15 min
B4	> 15 min
B5	> 15 min
B6	> 15 min
B7	> 15 min
B8	> 15 min
B9	> 15 min
B10	> 15 min
B11	> 15 min
B12	> 15 min
B13	> 15 min
B14	> 15 min
B15	> 15 min

target: human Gastric Inhibitory Peptide Receptor (human) (UniProt P48546); assay: FACS competition with GIP-057 on CHO-K1-hGIPR cells; pIC50 category A: >8.0
Sequence (P48546 22-466 limits assumed): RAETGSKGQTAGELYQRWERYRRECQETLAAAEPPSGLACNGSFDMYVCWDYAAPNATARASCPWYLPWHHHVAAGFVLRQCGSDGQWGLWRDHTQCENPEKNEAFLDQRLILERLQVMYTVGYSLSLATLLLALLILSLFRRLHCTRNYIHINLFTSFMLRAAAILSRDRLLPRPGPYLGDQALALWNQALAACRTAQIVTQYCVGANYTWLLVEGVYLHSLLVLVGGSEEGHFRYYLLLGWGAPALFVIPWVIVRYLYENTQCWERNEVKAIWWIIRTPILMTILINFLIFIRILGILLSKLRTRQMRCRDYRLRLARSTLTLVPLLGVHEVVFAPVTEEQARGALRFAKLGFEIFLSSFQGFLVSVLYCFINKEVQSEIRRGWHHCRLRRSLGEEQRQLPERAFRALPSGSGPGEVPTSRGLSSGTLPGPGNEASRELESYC

Binder	pIC50
B1	> 8 pic50
B2	> 8 pic50
B3	> 8 pic50
B4	> 8 pic50
B5	> 8 pic50
B6	> 8 pic50
B7	> 8 pic50
B8	> 8 pic50
B9	> 8 pic50
B10	> 8 pic50
B11	> 8 pic50
B12	> 8 pic50
B13	> 8 pic50
B14	> 8 pic50
B15	> 8 pic50

— US20250296971A1, “GASTRIC INHIBITORY PEPTIDE RECEPTOR LIGANDS” (priority 2021, published 2025)
